Test results reported in PMC9029106.

Target: SKP2 (UniProt Q13309)
Assay: co-IP, blot for Myc and p27
Details: reference: wild-type p27; sites T187

“p27 (Kip1) (from UniProt P46527) p27 T187A” was tested, and the “binding against the reference” value was “lost”.
